13 molecules from publication PMC1888804 (Nucleic Acids Research, 2007) can be followed below.

Where two headings read alike, the source gives them in different places.

What all share (assay): SPR
Assay [1] deals with α subunit of Escherichia coli DNA polymerase III holoenzyme (E. coli) (UniProt P10443).
For assay [2], the target named is T1, α subunit of Escherichia coli DNA polymerase III holoenzyme (E. coli, UniProt P10443 1-1160).
Assay [3] has as its target T1, α subunit of Escherichia coli DNA …. This is another data set of the same source.
Assay [4] has the same target. This is another data set of the same source.

T1 sequence (P10443 whole entry): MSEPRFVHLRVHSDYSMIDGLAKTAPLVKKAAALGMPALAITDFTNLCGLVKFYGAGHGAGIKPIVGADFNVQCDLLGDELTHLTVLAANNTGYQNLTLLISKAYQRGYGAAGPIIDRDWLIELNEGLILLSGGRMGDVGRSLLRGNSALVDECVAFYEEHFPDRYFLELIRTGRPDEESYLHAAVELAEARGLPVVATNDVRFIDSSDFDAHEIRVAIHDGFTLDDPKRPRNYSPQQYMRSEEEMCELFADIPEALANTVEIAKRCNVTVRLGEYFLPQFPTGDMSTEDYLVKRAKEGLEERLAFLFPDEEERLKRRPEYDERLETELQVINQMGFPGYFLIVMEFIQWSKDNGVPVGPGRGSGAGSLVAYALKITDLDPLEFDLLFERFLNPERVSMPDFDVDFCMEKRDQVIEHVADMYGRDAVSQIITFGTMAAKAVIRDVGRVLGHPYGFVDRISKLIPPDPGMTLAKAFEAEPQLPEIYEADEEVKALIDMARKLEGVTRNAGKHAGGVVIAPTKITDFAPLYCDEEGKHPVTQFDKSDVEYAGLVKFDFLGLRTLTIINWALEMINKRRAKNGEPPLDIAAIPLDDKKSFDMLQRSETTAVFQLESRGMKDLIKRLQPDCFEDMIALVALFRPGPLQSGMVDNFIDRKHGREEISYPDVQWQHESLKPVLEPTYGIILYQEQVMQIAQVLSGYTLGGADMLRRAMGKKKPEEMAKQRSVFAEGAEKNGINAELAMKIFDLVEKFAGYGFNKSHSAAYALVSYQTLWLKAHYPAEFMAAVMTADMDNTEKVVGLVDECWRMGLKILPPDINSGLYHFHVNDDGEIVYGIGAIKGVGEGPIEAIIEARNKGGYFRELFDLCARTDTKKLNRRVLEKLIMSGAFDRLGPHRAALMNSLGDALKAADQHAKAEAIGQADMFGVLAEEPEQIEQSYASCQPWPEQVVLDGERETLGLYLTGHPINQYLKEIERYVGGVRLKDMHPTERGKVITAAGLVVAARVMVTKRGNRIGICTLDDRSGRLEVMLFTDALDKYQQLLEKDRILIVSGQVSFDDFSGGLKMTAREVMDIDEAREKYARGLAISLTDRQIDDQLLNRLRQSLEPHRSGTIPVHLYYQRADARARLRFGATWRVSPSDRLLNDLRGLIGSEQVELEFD
α subunit of Escherichia coli DNA polymerase III holoenzyme (E. coli), sequence (P10443 whole entry): as above

In the case of “τC16Δ7 (τC16 with a C-terminal deletion of seven residues) (from UniProt P06710 499-636) (domain or fragment)”, the Kd in assay [1] stood at 6700 nM.

B1: τC16Δ11 (τC16 with a C-terminal deletion of 11 residues) (domain or fragment, E. coli)
chain: MKALEHEKTPELAAKLAAEAIERDPWAAQVSQLSLPKLVEQVALNAWKEESDNAVCLHLRSSQRHLNNRGAQQKLAEALSMLKGSTVELTIVEDDNPAVRTPLEWRQAIYEEKLAQARESIIADNNIQTLRRFFD
In assay [2], B1 yielded a Kd of over 10000 nM.

B2: τC16 (Domain V of the τ subunit of E. coli DNA polymerase III holoenzyme, residues 499–643) (domain or fragment)
chain: MKALEHEKTPELAAKLAAEAIERDPWAAQVSQLSLPKLVEQVALNAWKEESDNAVCLHLRSSQRHLNNRGAQQKLAEALSMLKGSTVELTIVEDDNPAVRTPLEWRQAIYEEKLAQARESIIADNNIQTLRRFFDAELDEESIRPI
For the molecule B2, in assay [2], the Kd was found to be 0.13 nM.

B3: bio-τC16 (N-terminally biotinylated τC16) (domain or fragment, E. coli)
chain: MKALEHEKTPELAAKLAAEAIERDPWAAQVSQLSLPKLVEQVALNAWKEESDNAVCLHLRSSQRHLNNRGAQQKLAEALSMLKGSTVELTIVEDDNPAVRTPLEWRQAIYEEKLAQARESIIADNNIQTLRRFFDAELDEESIRPI
modifications: biotinylated on the N-terminal biotin-tag
As to B3, in assay [3], the Kd is 0.265 nM, the koff is 0.000402 s⁻¹ and the kon is 1.52e+06 M⁻¹ s⁻¹. This molecule also yielded a Kd in assay [4] of 0.264 nM.

B4: τC16[I618T] (domain or fragment, E. coli)
chain: MKALEHEKTPELAAKLAAEAIERDPWAAQVSQLSLPKLVEQVALNAWKEESDNAVCLHLRSSQRHLNNRGAQQKLAEALSMLKGSTVELTIVEDDNPAVRTPLEWRQAIYEEKLAQARESTIADNNIQTLRRFFDAELDEESIRPI
Turning to B4, in assay [2], the Kd is 0.98 nM. This lies in the sub-nanomolar range.

B5: τC16[F631I] (domain or fragment, E. coli)
chain: MKALEHEKTPELAAKLAAEAIERDPWAAQVSQLSLPKLVEQVALNAWKEESDNAVCLHLRSSQRHLNNRGAQQKLAEALSMLKGSTVELTIVEDDNPAVRTPLEWRQAIYEEKLAQARESIIADNNIQTLRRFIDAELDEESIRPI
In the case of B5, the Kd in assay [2] amounted to 99 nM.

B6: τC16[L635P] (domain or fragment, E. coli)
chain: MKALEHEKTPELAAKLAAEAIERDPWAAQVSQLSLPKLVEQVALNAWKEESDNAVCLHLRSSQRHLNNRGAQQKLAEALSMLKGSTVELTIVEDDNPAVRTPLEWRQAIYEEKLAQARESIIADNNIQTLRRFFDAEPDEESIRPI
In turn, B6 gave a Kd in assay [2] of 2.4 nM.

B7: τC16[S617P] (domain or fragment, E. coli)
chain: MKALEHEKTPELAAKLAAEAIERDPWAAQVSQLSLPKLVEQVALNAWKEESDNAVCLHLRSSQRHLNNRGAQQKLAEALSMLKGSTVELTIVEDDNPAVRTPLEWRQAIYEEKLAQAREPIIADNNIQTLRRFFDAELDEESIRPI
For B7, the affinity in assay [2], expressed as Kd, was 160 nM.

B8: τC16[L627P] (domain or fragment, E. coli)
chain: MKALEHEKTPELAAKLAAEAIERDPWAAQVSQLSLPKLVEQVALNAWKEESDNAVCLHLRSSQRHLNNRGAQQKLAEALSMLKGSTVELTIVEDDNPAVRTPLEWRQAIYEEKLAQARESIIADNNIQTPRRFFDAELDEESIRPI
In turn, B8 showed a Kd in assay [2] of 1500 nM.

B9: τC16[D636G] (domain or fragment, E. coli)
chain: MKALEHEKTPELAAKLAAEAIERDPWAAQVSQLSLPKLVEQVALNAWKEESDNAVCLHLRSSQRHLNNRGAQQKLAEALSMLKGSTVELTIVEDDNPAVRTPLEWRQAIYEEKLAQARESIIADNNIQTLRRFFDAELGEESIRPI
As for B9, binding in assay [2] was characterised by a dissociation constant (Kd) of 3.8 nM. Compared with the last molecule, the Kd is about 390-fold lower. On the same count and under the same terms, in the case of AQARESIIADNNIQTLRRFFDAELDEESIRPI (peptide, UniProt P06710 612-643, looked up) [τCpep32 (synthetic 32-mer peptide of the C-terminus of τ)] it was 3800 nM.

B10: τC14 (folded core of Domain V of τ, residues 499–625) (domain or fragment, E. coli)
chain: MKALEHEKTPELAAKLAAEAIERDPWAAQVSQLSLPKLVEQVALNAWKEESDNAVCLHLRSSQRHLNNRGAQQKLAEALSMLKGSTVELTIVEDDNPAVRTPLEWRQAIYEEKLAQARESIIADNNIQ
On to B10, for which the Kd in assay [2] is over 10000 nM.

B11: bio-τC14 (biotinylated τC14) (domain or fragment, E. coli)
chain: MKALEHEKTPELAAKLAAEAIERDPWAAQVSQLSLPKLVEQVALNAWKEESDNAVCLHLRSSQRHLNNRGAQQKLAEALSMLKGSTVELTIVEDDNPAVRTPLEWRQAIYEEKLAQARESIIADNNIQ
modifications: biotinylated on the N-terminal biotin-tag
Take B11: the Kd in assay [3] was over 1000 nM.
